{"source": "patent US20210238249", "key": {"[1]": {"biological_target": "fusion protein TOM70-(GGGGS)3-UB-p53 (UniProt P07213)"}, "[2]": {"biological_target": "recombinant fusion protein TOM70-UB-p53 (UniProt P07213)"}}, "data": [{"substance": "UBP1 enzyme", "values": [{"measurement": "cleavage of the ubiquitin sequence by UBP1, 37 C for 1 hour, SDS-PAGE", "setting": "[1]", "result": "the 3′ end of ubiquitin was cleaved by UBP1 enzyme, and only p53 protein was dissociation as expected"}, {"measurement": "cleavage of the ubiquitin sequence by UBP1, 37 C for 1 hour, SDS-PAGE", "setting": "[2]", "result": "the dissociation of the ubiquitin protein from the fusion protein did not occur at all by UBP1"}]}]}
